Assay results as given in patent US10925971B2, “Methods of treating PRLR positive breast cancer” (Regeneron Pharmaceuticals, Inc., priority 2016, dated 2021).

Biological target: T1, hPRLR-mmH (SEQ ID NO:406) (Homo sapiens, UniProt P16471)
T1 construct: this experiment was conducted with a truncated form of PRLR (i.e., hPRLR-mmH)
Assay: Epitope mapping by hydrogen/deuterium exchange with MALDI-TOF MS
Assay type: binding
Method: Experiments were conducted to determine the amino acid residues of PRLR with which H1H6958N2 interacts. For this purpose hydrogen/deuterium (H/D) exchange epitope mapping was carried out. A general description of the H/D exchange method is set forth in e.g., Ehring (1999) Analytical Biochemistry 267(2):252-259; and Engen and Smith (2001) Anal. Chem. 73:256A-265A.
To map the binding epitope(s) of antibody H1H6958N2 on hPRLR via H/D exchange, a construct comprising a recombinant extracellular domain of hPRLR with a C-terminal myc-myc-hexahistidine tag (hPRLR-mmH; SEQ ID NO: SEQ ID NO:406) was buffer exchanged to PBS with a final concentration of 8 mg/mL, and antibody H1H6958N2 was covalently attached to N-hydroxysuccinimide (NHS) agarose beads (GE Lifescience)
In the ‘on-solution/off-beads’ (on-exchange in solution followed by off-exchange on beads) experiment, the hPRLR was deuterated for 5 min or 10 min in PBS buffer prepared with D2O, and then bound to H1H6958N2 beads through a 2 min incubation. The hPRLR-bound beads were washed with PBS aqueous buffer (prepared with H2O) and incubated PBS buffer for half of the on-exchange time. After the off-exchange, the bound hPRLR was eluted from beads with an ice-cold low pH TFA solution. The eluted hPRLR was then digested with immobilized pepsin (Thermo Scientific) for 5 min. The resulting peptides were desalted using ZipTip® chromatographic pipette tips and immediately analyzed by UltrafleXtreme matrix assisted laser desorption ionization time of flight (MALDI-TOF)-TOF mass spectrometry (MS).
In the ‘on-beads/off-beads’ (on-exchange on beads followed by off-exchange on beads) experiment, hPRLR was first bound to H1H6958N2 beads and then incubated for 5 min or 10 min in D2O for on-exchange. The following steps (off-exchange, pepsin digestion, and MS analysis) were carried out as described for the ‘on-solution/off-beads’ procedure. The centroid values or average mass-to-charge ratios (m/z) of all the detected peptides were calculated and compared between these two sets of experiments.
The results are summarized in Table 29 which provides a comparison of the centroid m/z values for all the detected peptides identified by liquid chromatography and MS following the H/D exchange and peptic digest procedure described above. For purposes of the present Example, a positive difference (A) of at least 0.20 m/z in both experiments indicates amino acids protected by antibody binding. Segments meeting this criterion are indicated by bold text and an asterisk (*) in Table 29. [Note that, although this experiment was conducted with a truncated form of PRLR (i.e., hPRLR-mmH; SEQ ID NO: 406), residue numbering in the far left column of Table 29 has been adjusted to correspond to the amino acid sequence of the full-length PRLR protein represented by SEQ ID NO: 404.]

[1] = hPRLR peptide residues 168-180 of SEQ ID NO: 404, Experiment II 10 min on-/5 min off-exchange
[2] = hPRLR peptide residues 169-180 of SEQ ID NO: 404, Experiment I 5 min on-/2.5 min off-exchange
[3] = hPRLR peptide residues 169-180 of SEQ ID NO: 404, Experiment II 10 min on-/5 min off-exchange
[4] = hPRLR peptide residues 170-179 of SEQ ID NO: 404, Experiment I 5 min on-/2.5 min off-exchange
[5] = hPRLR peptide residues 170-179 of SEQ ID NO: 404, Experiment II 10 min on-/5 min off-exchange
[6] = hPRLR peptide residues 170-180 of SEQ ID NO: 404, Experiment I 5 min on-/2.5 min off-exchange
[7] = hPRLR peptide residues 170-180 of SEQ ID NO: 404, Experiment II 10 min on-/5 min off-exchange
[8] = hPRLR peptide residues 191-205 of SEQ ID NO: 404, Experiment I 5 min on-/2.5 min off-exchange
[9] = hPRLR peptide residues 191-205 of SEQ ID NO: 404, Experiment II 10 min on-/5 min off-exchange
[10] = hPRLR peptide residues 192-202 of SEQ ID NO: 404, Experiment I 5 min on-/2.5 min off-exchange
[11] = hPRLR peptide residues 192-202 of SEQ ID NO: 404, Experiment II 10 min on-/5 min off-exchange
[12] = hPRLR peptide residues 192-205 of SEQ ID NO: 404, Experiment I 5 min on-/2.5 min off-exchange
[13] = hPRLR peptide residues 192-205 of SEQ ID NO: 404, Experiment II 10 min on-/5 min off-exchange
[14] = hPRLR peptide residues 206-215 of SEQ ID NO: 404, Experiment I 5 min on-/2.5 min off-exchange
[15] = hPRLR peptide residues 206-215 of SEQ ID NO: 404, Experiment II 10 min on-/5 min off-exchange
[16] = hPRLR peptide residues 206-217 of SEQ ID NO: 404, Experiment I 5 min on-/2.5 min off-exchange
[17] = hPRLR peptide residues 206-217 of SEQ ID NO: 404, Experiment II 10 min on-/5 min off-exchange
[18] = hPRLR peptide residues 206-222 of SEQ ID NO: 404, Experiment I 5 min on-/2.5 min off-exchange
[19] = hPRLR peptide residues 206-222 of SEQ ID NO: 404, Experiment II 10 min on-/5 min off-exchange
[20] = hPRLR peptide residues 236-249 of SEQ ID NO: 404, Experiment I 5 min on-/2.5 min off-exchange
[21] = hPRLR peptide residues 236-249 of SEQ ID NO: 404, Experiment II 10 min on-/5 min off-exchange
[22] = hPRLR peptide residues 238-261 of SEQ ID NO: 404, Experiment I 5 min on-/2.5 min off-exchange
[23] = hPRLR peptide residues 238-261 of SEQ ID NO: 404, Experiment II 10 min on-/5 min off-exchange
[24] = hPRLR peptide residues 241-261 of SEQ ID NO: 404, Experiment I 5 min on-/2.5 min off-exchange
[25] = hPRLR peptide residues 241-261 of SEQ ID NO: 404, Experiment II 10 min on-/5 min off-exchange
[26] = hPRLR peptide residues 250-261 of SEQ ID NO: 404, Experiment I 5 min on-/2.5 min off-exchange
[27] = hPRLR peptide residues 250-261 of SEQ ID NO: 404, Experiment II 10 min on-/5 min off-exchange

T1 sequence (P16471 with tags, fused parts or gaps): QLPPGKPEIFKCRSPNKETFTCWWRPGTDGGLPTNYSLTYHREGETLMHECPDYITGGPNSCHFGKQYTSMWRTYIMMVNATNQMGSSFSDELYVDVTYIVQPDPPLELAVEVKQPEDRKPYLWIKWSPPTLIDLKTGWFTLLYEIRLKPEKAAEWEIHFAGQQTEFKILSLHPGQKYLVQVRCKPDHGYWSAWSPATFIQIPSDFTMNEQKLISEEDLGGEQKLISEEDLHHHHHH

B1: H1H6958N2: anti-PRLR antibody, receptor blocking, human IgG1 Fc form of H2M6958N2 of Table 1; HCVR/LCVR SEQ ID NOs 290/298 (antibody, V domains shown)
VH: QVQLVESGGGVVQPGRSLRLSCGASGFTFRNYGMQWVRQGPGKGLEWVTLISFDGNDKYYADSVKGRFTISRDNSKNTLFLQMNSLRTEDTAVYYCARGGDFDYWGQGTLVTVSS
VL: DIQMTQSPSSLSASVGDRVTITCRASQDIRKDLGWYQQKPGKAPKRLIYAASSLHSGVPSRFSGSGSGTEFTLTISSLQPEDFATYYCLQHNSYPMYTFGQGTKLEIK
hPRLR peptide residues 168-180 of SEQ ID NO: 404, Experiment I 5 min on-/2.5 min off-exchange
  Δ (centroid m/z difference): −0.06 m/z
[1]
  centroid m/z, on-beads/off-beads: 1633.64 m/z
  centroid m/z, on-solution/off beads: 1633.71 m/z
  Δ (centroid m/z difference): 0.08 m/z
[2]
  centroid m/z, on-beads/off-beads: 1469.86 m/z
  centroid m/z, on-solution/off beads: 1469.67 m/z
  Δ (centroid m/z difference): −0.19 m/z
[3]
  centroid m/z, on-beads/off-beads: 1469.67 m/z
  centroid m/z, on-solution/off beads: 1469.71 m/z
  Δ (centroid m/z difference): 0.04 m/z
[4]
  centroid m/z, on-beads/off-beads: 1155.35 m/z
  centroid m/z, on-solution/off beads: 1155.40 m/z
  Δ (centroid m/z difference): 0.05 m/z
[5]
  centroid m/z, on-beads/off-beads: 1155.39 m/z
  centroid m/z, on-solution/off beads: 1155.40 m/z
  Δ (centroid m/z difference): 0.01 m/z
[6]
  centroid m/z, on-beads/off-beads: 1341.66 m/z
  centroid m/z, on-solution/off beads: 1341.62 m/z
  Δ (centroid m/z difference): −0.04 m/z
[7]
  centroid m/z, on-beads/off-beads: 1341.34 m/z
  centroid m/z, on-solution/off beads: 1341.49 m/z
  Δ (centroid m/z difference): 0.15 m/z
[8]
  centroid m/z, on-beads/off-beads: 1772.03 m/z
  centroid m/z, on-solution/off beads: 1772.03 m/z
  Δ (centroid m/z difference): −0.01 m/z
[9]
  centroid m/z, on-beads/off-beads: 1772.28 m/z
  centroid m/z, on-solution/off beads: 1772.15 m/z
  Δ (centroid m/z difference): −0.13 m/z
[10]
  centroid m/z, on-beads/off-beads: 1284.39 m/z
  centroid m/z, on-solution/off beads: 1284.36 m/z
  Δ (centroid m/z difference): −0.03 m/z
[11]
  centroid m/z, on-beads/off-beads: 1284.43 m/z
  centroid m/z, on-solution/off beads: 1284.32 m/z
  Δ (centroid m/z difference): −0.11 m/z
[12]
  centroid m/z, on-beads/off-beads: 1624.98 m/z
  centroid m/z, on-solution/off beads: 1624.94 m/z
  Δ (centroid m/z difference): −0.04 m/z
[13]
  centroid m/z, on-beads/off-beads: 1625.17 m/z
  centroid m/z, on-solution/off beads: 1625.08 m/z
  Δ (centroid m/z difference): −0.10 m/z
[14]
  centroid m/z, on-beads/off-beads: 1261.33 m/z
  centroid m/z, on-solution/off beads: 1261.44 m/z
  Δ (centroid m/z difference): 0.11 m/z
[15]
  centroid m/z, on-beads/off-beads: 1261.46 m/z
  centroid m/z, on-solution/off beads: 1261.24 m/z
  Δ (centroid m/z difference): −0.22 m/z
[16]
  centroid m/z, on-beads/off-beads: 1419.65 m/z
  centroid m/z, on-solution/off beads: 1419.64 m/z
  Δ (centroid m/z difference): −0.01 m/z
[17]
  centroid m/z, on-beads/off-beads: 1419.45 m/z
  centroid m/z, on-solution/off beads: 1419.48 m/z
  Δ (centroid m/z difference): 0.02 m/z
[18]
  centroid m/z, on-beads/off-beads: 1962.39 m/z
  centroid m/z, on-solution/off beads: 1962.58 m/z
[19]
  centroid m/z, on-beads/off-beads: 1962.63 m/z
  centroid m/z, on-solution/off beads: 1962.52 m/z
  Δ (centroid m/z difference): −0.10 m/z
[20]
  centroid m/z, on-beads/off-beads: 1560.76 m/z
  centroid m/z, on-solution/off beads: 1560.81 m/z
  Δ (centroid m/z difference): 0.05 m/z
[21]
  centroid m/z, on-beads/off-beads: 1560.83 m/z
  centroid m/z, on-solution/off beads: 1560.81 m/z
  Δ (centroid m/z difference): −0.01 m/z
[22]
  centroid m/z, on-beads/off-beads: 2827.99 m/z
  centroid m/z, on-solution/off beads: 2828.15 m/z
  Δ (centroid m/z difference): 0.16 m/z
[23]
  centroid m/z, on-beads/off-beads: 2828.17 m/z
  centroid m/z, on-solution/off beads: 2827.99 m/z
  Δ (centroid m/z difference): −0.18 m/z
[24]
  centroid m/z, on-beads/off-beads: 2498.74 m/z
  centroid m/z, on-solution/off beads: 2498.70 m/z
  Δ (centroid m/z difference): −0.04 m/z
[25]
  centroid m/z, on-beads/off-beads: 2498.88 m/z
  centroid m/z, on-solution/off beads: 2498.68 m/z
  Δ (centroid m/z difference): −0.20 m/z
[26]
  centroid m/z, on-beads/off-beads: 1528.75 m/z
  centroid m/z, on-solution/off beads: 1528.68 m/z
  Δ (centroid m/z difference): −0.06 m/z
[27]
  centroid m/z, on-beads/off-beads: 1528.71 m/z
  centroid m/z, on-solution/off beads: 1528.64 m/z
  Δ (centroid m/z difference): −0.07 m/z
